In patent publication US20130302353A1 (published 2013):
Blank lines part the entries; values can stand above or below the binder they belong to.

Tests used:
[1] = target: T1, IRSMPSHPDRA (SEQ ID NO:33) (human); assay: Pepscan ELISA on linear and CLIPS peptides
T1 construct: the peptides on the cards were longer and mostly CLIPS-constrained
T1 peptide: IRSMPSHPDRA
Method: (§1) The synthetic linear and CLIPS peptides were synthesized and screened using credit-card format mini PEPSCAN cards (455-well plate with 3 ul wells) as described by Slootstra et al. (Slootstra et al., 1996, Mol. Diversity. 1, 87-96) and Timmerman et al. (Timmerman et al., 2007, J. Mol. Recognit. 20, 283-299). The binding of antibodies (hAPRIL.01A and hAPRIL.03A) to each peptide was tested in a PEPSCAN-based enzyme-linked immuno assay (ELISA). The 455-well creditcard-format polypropylene cards, containing the covalently linked peptides, were incubated with sample (for example 1 ug/ml antibody diluted in a PBS solution containing 5% horse serum (vol/vol) and 5% ovalbumin (weight/vol)) and 1% Tween 80 (4° C., overnight). After washing the peptides were incubated with an anti-antibody peroxidase (dilution 1/1000, for example rabbit anti-mouse peroxidase, Southern Biotech) (1 hour, 25° C.), and subsequently, after washing the peroxidase substrate 2,2′-azino-di-3-ethylbenzthiazoline sulfonate (ABTS) and […] 3% H2O2 were added. After 1 hour the color development was measured. The color development of the ELISA was quantified with a CCD-camera and an image processing system. […]
(§2) Each antibody was tested on all 4225 peptides and their binding values were ranked. […] For hAPRIL.01A it was determined that it binds to […] […]

[2] = target: T2, FLAG-hAPRIL captured by BCMA-Fc (human, UniProt O75888 110-250; Q02223 1-54, limits assumed); assay: ELISA, FLAG-hAPRIL captured by coated BCMA-Fc
T2 construct: also called APRIL-BCMA complex; receptor-ligand complex; not shown: FLAG tag; Fc of human IgG1
T2 sequence (looked up) 1: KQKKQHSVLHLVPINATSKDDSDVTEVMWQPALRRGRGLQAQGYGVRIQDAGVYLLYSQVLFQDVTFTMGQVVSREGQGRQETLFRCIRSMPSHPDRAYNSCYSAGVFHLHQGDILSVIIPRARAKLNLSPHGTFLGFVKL
T2 sequence (looked up) 2: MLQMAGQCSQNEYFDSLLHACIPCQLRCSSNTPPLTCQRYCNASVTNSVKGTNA
Method: Protein-based ELISA experiments using purified hAPRIL.01A and hAPRIL.03A antibodies were performed to determine apparent binding affinities (reported as EC₅₀ values). Binding was compared to mouse anti-hAPRIL IgG1 Aprily-5 (Alexis). Maxisorp 96-well immunoplates (Nunc) were coated with either rabbit anti-FLAG polyclonal antibody (Sigma) or BCMA-Fc (R&D Systems) at 50 ng/well in PBS overnight at 4° C. and blocked with 10% Goat serum/PBST for 1 hour at RT. Plates were washed with PBST 3 times and incubated with supernatant (1:4 in PBS) containing FLAG-hAPRIL for 1 hour at RT. Plates were again washed with PBST 3 times and incubated with hAPRIL.01A, hAPRIL.03A, and Aprily-5 antibodies (10 μg/ml high test with 10-fold dilutions in triplicates) for 1 h at RT. After three washes with PBST, bound antibodies were detected with goat anti-mouse IgG-HRP (1:2,000) (Southern Biotechnology) for 1 hour at RT. Plate was washed three times with PBST, and APRIL-reactivity was visualized with OptiEIA TMB substrate (Becton Dickinson). The concentration for half-maximal binding is reported as a measure of relative binding affinity. When FLAG-hAPRIL was captured by the anti-FLAG antibody (FIG. 2A), EC₅₀ values for hAPRIL.01A, hAPRIL.03A and Aprily-5 were calculated as 2.2, 1.4, and 1.7 nM, respectively. […] In contrast, binding of hAPRIL.03A to the APRIL-BCMA complex was observed.

[3] = target: T3, VSREGQGRQ (SEQ ID NO:38) motif (human); assay: Pepscan ELISA on linear and CLIPS peptides
T3 construct: the peptides on the cards were longer and mostly CLIPS-constrained; also called core region EGQ
T3 peptide: VSREGQGRQ
Method: as §1, §2

- binding result [1]: binds
- binding result [2]: no binding (tested: 10 µg/ml high test)
B1: hAPRIL.01A (antibody, IgG1, V domains shown)
VH: EVQLQQSGPELVKPGASVKMSCKASGYTFTSYVMHWVKQKPGQGLEWIGYINPYNDAPKYNEKFKGKATVTSDKSSGTAYMELSSLTSEDSAVYYCARGLGYALYYAMDYWGQGTSVTVSS
VL: DIVMTQSQKFKSTSVGDRVSVTCKASQNVGNNVAWYQQKAGQSPKALISSASNRDSGVPDRFTGSGSGTDFTLTISNVQSEDLADYFCQQYNIYPFTFGSGTELEIK
notes: Mouse antibody from a hybridoma; also called hAPRIL.01A hybridoma supernatant; purified hAPRIL.01A

- binding result [3]: binds
B2: hAPRIL.03A (antibody, IgG1, V domains shown)
VH: QVTLKESGPGILQPSQTLSLTCSFSGFSLSTYGIGVGWIRQPSGKGLEWLAHIWWNDNKYYNTALKSRLTISKDTSNNQVFLKIASVDTADTATYYCARIAGGNYDYAMDHWGQGTSVTVSS
VL: QIVLTQSPAIMSTSPGEKVTLTCSASSSVSSTYLYWYQQKPGSSPKLWIYSTSNLASGVPARFSGSGSGTSYSLTISSMEAEDAASYFCHQWSSYPPTFGAGTKLELK
notes: Mouse antibody from a hybridoma; also called hAPRIL.03A hybridoma supernatant; purified hAPRIL.03A
